Results: paper PMC9634612, “Rapid and efficient room-temperature serial synchrotron crystallography using the CFEL TapeDrive” (IUCrJ, 2022)

Target: the molecule itself
Test: crystal structure; room-temperature (293 K) serial synchrotron crystallography with the CFEL TapeDrive, 2.3 Å, space group I222, one monomer in the asymmetric unit, tetramer generated by symmetry; UOX with 5PMUA bound

B1: Aspergillus flavus urate oxidase (enzyme)
chain: MSAVKAARYGKDNVRVYKVHKDEKTGVQTVYEMTVCVLLEGEIETSYTKADNSVIVATDSIKNTIYITAKQNPVTPPELFGSILGTHFIEKYNHIHAAHVNIVCHRWTRMDIDGKPHPHSFIRDSEEKRNVQVDVVEGKGIDIKSSLSGLTVLKSTNSQFWGFLRDEYTTLKETWDRILSTDVDATWQWKNFSGLQEVRSHVPKFDATWATAREVTLKTFAEDNSASVQATMYKMAEQILARQQLIETVEYSLPNKHYFEIDLSWHKGLQNTGKNAEVFAPQSDPNGLIKCTVGRSSLKSKL
notes: Urate oxidase of Aspergillus flavus, untagged, from a codon-optimized synthetic cDNA in pET24b; One monomer in the asymmetric unit; the tetramer is generated by crystal symmetry; also called UOX; cofactor-free A. flavus urate oxidase
stoichiometry N: 4
